Reference: article PMC6691507 (Biochemistry, 2019)

Molecular target: PAD2 D177A mutant, purified recombinant (human (from the printed UniProt entry …, UniProt Q9Y2J8 1-665, D177A))
Assay: co-IP

Chain of PAD2 D177A mutant, purified recombinant (human (Q9Y2J8 whole entry D177A): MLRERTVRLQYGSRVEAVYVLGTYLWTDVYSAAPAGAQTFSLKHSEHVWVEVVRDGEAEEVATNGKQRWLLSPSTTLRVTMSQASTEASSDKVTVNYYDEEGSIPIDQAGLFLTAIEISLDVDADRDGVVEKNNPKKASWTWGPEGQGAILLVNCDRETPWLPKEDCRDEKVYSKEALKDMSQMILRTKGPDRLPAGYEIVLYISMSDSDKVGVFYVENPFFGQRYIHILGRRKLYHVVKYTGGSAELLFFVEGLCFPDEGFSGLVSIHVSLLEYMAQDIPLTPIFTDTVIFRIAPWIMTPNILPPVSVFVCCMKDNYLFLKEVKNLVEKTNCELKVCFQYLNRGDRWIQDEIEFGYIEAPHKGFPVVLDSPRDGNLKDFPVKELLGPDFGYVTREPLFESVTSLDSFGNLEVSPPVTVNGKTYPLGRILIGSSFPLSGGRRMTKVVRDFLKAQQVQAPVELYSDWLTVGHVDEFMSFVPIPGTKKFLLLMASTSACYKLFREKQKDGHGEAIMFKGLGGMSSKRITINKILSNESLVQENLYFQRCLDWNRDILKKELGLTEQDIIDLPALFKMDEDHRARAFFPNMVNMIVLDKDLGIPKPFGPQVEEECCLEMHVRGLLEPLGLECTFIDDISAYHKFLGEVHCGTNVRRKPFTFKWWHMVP

B1: Annexin A5 (ANXA5), purified recombinant (natural protein, UniProt P08758 1-320, looked up)
chain: MAQVLRGTVTDFPGFDERADAETLRKAMKGLGTDEESILTLLTSRSNAQRQEISAAFKTLFGRDLLDDLKSELTGKFEKLIVALMKPSRLYDAYELKHALKGAGTNEKVLTEIIASRTPEELRAIKQVYEEEYGSSLEDDVVGDTSGYYQRMLVVLLQANRDPDAGIDEAQVEQDAQALFQAGELKWGTDEEKFITIFGTRSVSHLRKVFDKYMTISGFQIEETIDRETSGNLEQLLLAVVKSIRSIPAYLAETLYYAMKGAGTDDHTLIRVMVSRSEIDLFNIRKEFRKNFATSLYSMIKGDTSGDYKKALLLLCGEDD
Q: Does B1 bind?
A: binds
